Experiment: label from the status in PepcDB records

| Sequence | protein production |
| --- | --- |
| MFLNGKVFIKGALGPRRRDASVSATQSQGAGGGVWGGPGSELAPPSRPRGRASGLLRIKLFEASRLRSRERKMAAPAGGGGSAVSVLAPNGRRHTVKVTPSTVLLQVLEDTCRRQDFNPSEYDLKFQRTVLDLSLQWRFANLPNNAKLEMVPASRSREGPENTVRIALQLDDGCRLQDSFCSRQTLWELLNHFAQTRERLQQLGERTPVCVYMRDEVTGRAALQNTTLQSLGLTGGSATIRFVIKQYDTTGKQESIAVRSKPPGSPVSSMSADQASSSPLLPLNSGEFSRGDLNHQGGASTSGTSLKGGPKPADAQTKQSTTKESASAPFIPFSGGGQRLGGPSVSLRSLTSPAAKSSTSFSGPGGPSKPKKSKPGEEPPQEPEPPVDRDPVVCHPDLEDLLQPWPAEVPDEFFEVTVDDVRRRLAQLKSERKRLEEAPLVTKAFREAQMKEKLERYPKVALRVLFPDRYILQGFFRPSETVGDLRDFVRSHLGNPELSFYLFIAPPKMVLDDHTLTLFQVPIALRVLLGLAVLGGQALCCGWVGKEPWQALQWVIKPLEPVNSEGAVASEVVSDWAFQPPPLPAWPRGGDWPAQLAGLLSSAGAA | failed |
| MQSVWFYMGKSFKIHCLTYIIFILQWLIFLSCKKHYKGEKVDRKAGVILFWHGKLALMPFAFRHYRQKNKKAYVMISHHKDGEQIAKIIKLFGLDTVRGSTSRGASSALRAAFKVLEQNDDIVITPDGPRGPYHSISDGSIILAQKKELKIRILNYEANRFWKFKSWDKMILPKPFSKITYSLSEPLDILSLDKEKAKEFLMKQFDKISLADQFKE | failed |
| MTTLKLFDIEHAWGLPRKVSPRFGARLILRGLHLDYLHDRASFVGEFPPAIKQQFVEAFPAMVKQLERLVATGEIDTTEQHCVSIEHAGFTCEADTLGSHGYLYIAIYQTKAKPLTTSNLTITRLEHHHHHH | failed |
| MSISISSIPDLTTVRARHPEAIAEAAARRVRRPLIGDSGRLMIVAADHPARGALGVGDRGLAMANRADLLERLCTALSRPGVDGVLATADVLEDLLLLGVLENKVVMGSMNRGGLAGAAFEMDDRFTGHRAEDIARLRFDAGKLLLRIDYDDPGSLTTMEASARAVDAMAARELPLFVEPFISRRIDGRVRNDLSAEAVTRSVAIASGLGGTSAYTWLKLPVTRNPDDMAEVLETSTLPAVLLGGDIGGSPADQTAAYERWRKALRLPTVQGMVVGRSLLYPAGGSVEEAVDTAVGLL | failed |
| AIQVFDVTAVNISATSLTLIWKVSDNESSSNYTYKIHVAGETDSSNLNVSEPRAVIPGLRSSTFYNITVCPVLGDIEGTPGFLQVHTPPVP | not failed |
| MSSWRKPGPIPRDLSVEIDSSTERRIIAKLLPGVMGPGFRQDDAGEAAMSDPSAHWNNVYATKGETEVSWFQESPAISLDMIRSANVDRGAGIIDIGGGASRLVDALLQDGYRNLAVLDLSANALDAAKRRIGPAAASVDWIVADATTWRPARSYEVWHDRAAFHFLTDPRDRAAYVERLRSAVAAGGHVIIATFALDGPEKCSGLPVQRHDSKSLSTELGPDFELIETRSETHHTPWKSTQAFQFSRFRRRGS | failed |
| MTDESDSTAHVSCIIPVYNDSVGIKNTLRSVVGQEYHGYDVYVVDNGSTDGSRRRVRNCAAESDDIQLLVEDEVQGSYAARKTGVQNAESDVLAFLDADETVDEDWLETALGAMQEQDVDYLGCNVELTCPEDTLVGRYNARTGFPVEEYLEDQNYAPTCALLVRRKVFEDVGPFDARLISGGDREFGDRVHDAGYEQGYAENATVYHPARTSLESLAKKNFRVGRGFCQKQRYYPERYGKPGIPPTPSGPSGGDDGDEPDASLTRLAFTLLSIAMLACRGVGYYYEFVVGEENDDIPAPTSLEHHHHHH | failed |
| IRQRKRAERALNDQLEFMRVLIDGTPNPIYVRDKEGRMLLCNDAYLDTFGVTADAVLGKTIPEANVVGDPALAREMHEFLLTRMAAEREPRFEDRDVTLHGRTRHVYQWTVPYGDSLGELKGIIGGWIDIT | failed |
| MKAGYETMTPEELRRLTATHDEADYEIVDVREPAEYRQGHLPGAKHIPVGEVEARLDELVPGRTHIFYCRSGARSRAALTFAVESGLTLGPLYDLAGGILAWDGHTVPDEPRLATFAHVSDMRSLLLRAIDMEKAVHGLYTRVRAASGRPVVCELMDRLVGVEVAHARVIYRELRKWWAAADGELPPFETLFETLEGRVLEGGRSVDELEPWIRSASTGDCHEVADLALELEFAAYDLYRTLADEAVQGSGLGEDAARVFLDLASQEKAHARMIVAAMARFGEEGADATA | failed |
| MSVLSIVTVPDKRLSLCSEEVEKVDQSIRKLVDDMFETMHANQGLGLAAVQVGVHKRILVMNVPEEFEDSEDIENVEDKIEGYELYGGPYCIINPKIVDISQEKVKLKEGCLSVPGYFDYIVRPQRIAVQYLDYNGNECIIKAQGWLARCLQHEIDHLNGTVFLKYLSKFKRDFAIEKVKKKERTDLI | not failed |
| MKPTLFLLAAGMGSRYGGLKQLDGLGPNGETIMDYSIYDAINAGFGKLVFVIRKDFEQDFREKIISKYEGHIPCELVFQSIDDLPEGFTCPADRTKPWGTNHAVMMGADVISEPFAVINCDDFYGRDSFQVMGKFLSALPENSKNVYSMVGFRVGNTLSESGTVSRGICSTDANNLLTSVVERTKIQRLDGEVKYIDDNGEWTATPDTTPVSMNFWGFTPDYFAYSEEFFKTFLSDPKNMENLKSEFFIPLMVDKLINDGTATVEVLDTTSKWFGVTYPEDRQSVVDKIQALVDAGEYPAKLFLEHHHHHH | failed |
| MFVIGIPTLNEADNISRLVKQIDEYAVNLGKEIIIINSDSKSTDGTPQIFLETKTYNTKVSIVSEAKGKGYNVRNIFEYAINHVPNFSGLILIDGDVVSMKKMWLEKMFIAIESGNDLIIPNYARKSFEGNATNHFIYPMLVKIFKRDMPYQCISGDFGFSRGLIKDLTLKCNWHKYTLGYGIDIFLTLTAILKSYKIKEIDLQSKIHKKSFEKIEKIFLEVSQSFFETINDNSLNQDKLRLNINFESHSRQFIKSSDILSSNDIENLKLRALFLLQEEKQYLHGLSEVEWDGILSNTINNIYRYSSEEHSLYLLPLYLLRVYNYLKYN | failed |
| SFRVVLDPGHGGIDGGARGVTGILEKDVTLAFARALRDELQKGSHTIVALTRDSDIFLRLSERVKKAQEFDADLFISIHADTIDVHSLRGATVYTISDEASDAIAKSLAESENKVDLLDGLPKEESLELTDILLDLTRRETHAFSINFANNVVSNLSKSHINLINNPHRYADFQVLKAPDVPSVLIEIGYLSNKEDEKLLNNPQWRKQMAASIAYSIRQFAEYRQKIMQPL | not failed |
| MTTTMSTLPVVLVDEILARVPITSLRSLRSTCKKWEASSKTNLVGGKATARKSSHVGFILIGDKICSMKLDLNGGDDFVDTSVNQVSAFDGFAISQLFHCDGLLFCISNNHYSNYTLMVCNMYLGETRLIQNRSLFESYQNFCSYAFGYDSSKNRNHKILRNNSVSGGYEIYSLKSDSWKDLNVDLEKSIHLWRLGSVSLKGNAYFRVIKVIEEGVWEYNLLCFDFTRESFGKLLSLPFESLGDEGEGIMVISCVRDDHLAVLYQRDTLGIWISTEIEPNKVSWREFLQVDLATLDGFPDVFIAGRFIVDEEKQVVVVFGQETELDLNHGNAFIFGRDGYFTSFTVGDAPPEDFTSYVPSLVSLQIDKTGKRKARDD | failed |
| MTEEHVVLLDEQDKPSGTLEKYAAHTLNTPLHLAFSCWLFNEDGQLLVTRRSLSKKAWPGVWTNSVCGHPQQGETTEEAIIRRCRFELGVEITDLTPVYPHFSYRATDPNGIVENEVCPVFAARATSVLQVNSEEVMDYQWSEFKSVWKSLLATPWAFSPWMVMQASDEQARERLLNYCQR | not failed |
| MKKFFKLKENKTTVRTEVLAGITTFFAMSYILFVNPSILSQTGMPSQGVFLATIIGSIAGTLMMGLYANIPYAMAPGMGLNAFFTYTVVFSLGYTWQEALAMVFICGIISIVITLTRVRRMIIDEIPDSLKKAISAGIGIFLTYIGLKNAGLLNFAIDPGTYSVSGKGAAKGLASITANSSATPSLVNFNNPAVLVAVIGIIITAFFIIKNIKGGVILSIIVTTVIALLAGVVDLSKIDFSANNPVAAVKDLGTIFGAALGNKGLGALFSDAGRIPEVLMTILAFALTDIFDNVGTLIGTGAKAGIFDVTSESTSSGLQNKMDKALFSDMVGTTVGAVAGTSNVTTFVESAAGIGAGGRTGLTAVVVALLFAVSSFFSPLLAIVPTQATAAVLLIVGIMMLSSLKDIEWSDMSQAIPAFFATVFMGLAYSITQGIATGFLFYTFSKLIKKEAKDIHPIIWVLDVLFILNFISLAVL | failed |
| MVAQLPEPIKIVRRAGDVRIHTFISAFTDDNIANATHIIEGRNKLVLVDGQFLVPYALQFRAYADSLGKEIDRIYLSHRHPDHWFGLGAAFSDIPIHALSETKEFLRQHGQDSLNDHWKLGNLAPKTLVIPEKTVRAGHEIIDGVKYVFDEVVDTEIDFLLTIGLPDVGVFIAQDLIYSGTHLYLTKYMEHWIGVLQGMLLSDYELFLPGHGFPADKNEVAKNIEYLSVAIEAAGHGLTNDAFKRFLLERFPERKCPGIFDIYIPRLFDNASEF | failed |
| MRQTQVKSPYCHQSNYKLAIAIITVITGTVVTGATVTTGTAIMNGVKTAGGIMIMATIVAGISVKRMNVAIVKAGAIVTIIVEKAADMDTAIKHIRQWSTMPDATLARLIRPTNQLFNA | failed |
| MSFDRPEIYSAPVLQGESPNDDDNTEIIKSFKNFILEFRLDSQFIYRDQLRNNILVKNYSLTVNMEHLIGYNEDIYKKLSDEPSDIIPLFETAITQVAKRISILSRAQSANNNDKDPENTSMDTDSLLLNSLPTFQLILNSNANQIPLRDLDSEHVSKIVRLSGIIISTSVLSSRATYLSIMCRNCRHTTSITINNFNSITGNTVSLPRSCLSTIESESSMANESNIGDESTKKNCGPDPYIIIHESSKFIDQQFLKLQEIPELVPVGEMPRNLTMTCDRYLTNKVIPGTRVTIVGIYSIYNSKNGAGSGRSGGGNGGSGVAIRTPYIKILGIQSDVETSSIWNSVTMFTEEEEEEFLQLSRNPKLYEILTNSIAPSIFGNEDIKKAIVCLLMGGSKKILPDGMRLRGDINVLLLGDPGTAKSQLLKFVEKVSPIAVYTSGKGSSAAGLTASVQRDPMTREFYLEGGAMVLADGGVVCIDEFDKMRDEDRVAIHEAMEQQTISIAKAGITTVLNSRTSVLAAANPIYGRYDDLKSPGDNIDFQTTILSRFDMIFIVKDDHNEERDISIANHVINIHTGNANAMQNQQEENGSEISIEKMKRYITYCRLKCAPRLSPQAAEKLSSNFVTIRKQLLINELESTERSSIPITIRQLEAIIRITESLAKLELSPIAQERHVDEAIRLFQASTMDAASQDPIGGLNQASGTSLSEIRRFEQELKRRLPIGWSTSYQTLRREFVDTHRFSQLALDKALYALEKHETIQLRHQGQNIYRSGV | failed |
| MINAISPFQVQNTQNTQNATNQVNNSQKTDSSNQTSFSELLKNSISSLNESQVASDNMTNALAAGKDVNLDEVMIAAQKASISLTAATEFRNKAVEAYQEIMRMQM | not failed |
| MRRRGKGGGSVFYHEGKGKWVAQLTWIDPATGRKVKREKHCETRKEAERALADMVVAQAKGLLTDPSRLTTRDFALDYLKRLEREGLRPNSIRLAQEELAHALPSLKDPKAHDPLGRMRLQEVKPVHVRAAVDRVAEAGYAPRTVGRVLMRLKALFREALRLELVARNPAEAVRLRLPKGEKTARALEPQEVARLLETAEASRSKDMALLLRLMLETGLRRGEALALQWRDIDLEAGELTVWRSWTKARGKGAFSEPKTPTAKRKVPLPRGLLLRLKARREELLERLTPEEVDGLFLVGGVKPVDPDAFNHYLRRLAERAGLGRVRVHDLRHTWATLALSRGVPLEVVSERLGHASPTITLNVYRHLLEEERRGWVLDLEELLYPAPRAQA | failed |
| MTKYKVALFDLDNTLLKTEDASVAALTYALNQDGVEVTPQAIVELMGLPGIDMARELGSSNPAKTIDIFNERINQEVDLIKEYDGIDEMFAGLRELGIEYGIVTSKLRRVFDDEMRSFPKIRAIEKVVLSDDTKKHKPHADPIEFGMQKYFPKLNRADVIYVGDSLFDMQSAHAAGVDFANAGWGAIPANDFSEAEYILKTPTDLLEIV | failed |
